Experimental data from the supplement of paper PMC10126150.
± gives the standard deviation of the averaged measurements.

Test system: ATP
Experiment: switch fluorescence ratio, 500 uM ATP over buffer (Cy3 cluster intensity, sum of 5 cycles each) (fold (ratio)); higher = stronger signal-on switching upon ATP binding; sequences stand for … in TCGTCGGCAGCGTCAGATGTGTATAAGAGACAGTTTTTTTTTTTTTTTTTTTTTTTTT…TC
Conditions: aptamer strand: ATP DNA aptamer (quencher-CACCTGGGGGAGTATTGCGGAGGAAGG + anchor), 100 nM annealed; ATP concentration: 500 uM
Procedure, shortened: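 Per cluster, summed Cy3 intensity from the target cycles was divided by that from the buffer cycles to give the fluorescence ratio, then averaged per switch-domain sequence. Clusters outside 100-1000 RFU were excluded. The Cy3-labelled switching-strand clusters, on a modified Illumina MiSeq flow-cell, were annealed to 100 nM quencher-labelled ATP aptamer and imaged in selection buffer, then after 15 min with 500 uM ATP at 22 °C, for five cycles with NaOH stripping and re-annealing between them.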
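Note: ATP exposure 15 min at 22 °C before imaging.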

Sequence | switch fluorescence ratio
TTTTTTGTCA | 1.02 ± 0.042
TTTTTTTAA | 0.991 ± 0.026
TTTTTTTAAA | 0.999 ± 0.027
TTTTTTTCCG | 1.012 ± 0.0081
TTTTTTTCGA | 1.01 ± 0.022
TTTTTTTCGG | 1 ± 0.027
TTTTTTTGC | 1 ± 0.02
TTTTTTTGCG | 1.02 ± 0.069
TTTTTTTTAA | 1.01 ± 0.045
TTTTTTTTCC | 1.15 ± 0.4
